# Experimental data from the supplement of paper PMC12338614.
# ± gives the uncertainty stated by the source.
# B1: library; numbered along this chain (parent)
# chain: MEVVDPQQLGMFTEGELMSVGMDTFIHRIDSTEVIYQPRRKRAKLIGKYLMGDLLGEGSYGKVKEVLDSETLCRRAVKILKKKKLRRIPNGEANVKKEIQLLRRLRHKNVIQLVDVLYNEEKQKMYMVMEYCVCGMQEMLDSVPEKRFPVCQAHGYFCQLIDGLEYLHSQGIVHKDIKPGNLLLTTGGTLKISDLGVAEALHPFAADDTCRTSQGSPAFQPPEIANGLDTFSGFKVDIWSAGVTLYNITTGLYPFEGDNIYKLFENIGKGSYAIPGDCGPPLSDLLKGMLEYEPAKRFSIRQIRQHSWFRKKHPPAEAPVPIPPSPDTKDRWRSMTVVPYLEDLHGADEDEDLFDIEDDIIYTQDFTVPGQVPEEEASHNGQRRGLPKAVCMNGTEAAQLSTKSRAEGRAPNPARKACSASSKIRRLSACKQQ
# Variants of: B1
# Assay: STK11 functional score (HeLa growth suppression), rescaled enrichment; synonymous median = 1, nonsense median = 0 (normalised score)
# Settings: with HeLa; variant type: missense
# In short: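 Functional scores are post/pre-selection log ratios corrected to wild type, rescaled to synonymous and nonsense medians, merged over codons and replicate transfections, and given bootstrapped error. They come from POPCode libraries of codon-optimised STK11 integrated by Bxb1 at an AAVS1 landing pad in HeLa, three regions each transfected three times, with BFP-negative, mCherry-positive integrants sorted by FACS and tiled gDNA amplicons sequenced on NextSeq.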
row,Variant,STK11 functional score
1,MEVVDPQQLGMFTEGELMSVGMDTFIHRIDSTEVIYQPRRKRAKLIGKYLMGDLLGEGSYGKVKEVLDSETLCRRAVKILKKKKLRRIPNGEANVKKEIQLLRRLRHKNVIQLVDVLYNEEKQKMYMVMEYCVCGMQEMLDSVPEKRFPVCQAHGYFCQLIDGLEYLHSQGIVHKDIKPGNLLLTTGGTLKISDLGVAEALHPFAADDTCRTSQGSPAFQPPEIANGLDTFSGFKVDIWSAGVTLYNITTGLYPFEGDNIYKLFENIGKGSYAIPGDCGPPLSDLLKGMLEYEPAKRFSIRQIRQHSWFRKKHPPAEAPVPIPPSPDTKDRWRSMTVVPYLEDLHGADEDEDLFDIEDDIIYTQDFTVPGQVPEEEASHNGQRRGLPKAVCMNGTEAAQLSTKSRAEGRPPNPARKACSASSKIRRLSACKQQ [A410P],0.257 ± 0.39
2,MEVVDPQQLGMFTEGELMSVGMDTFIHRIDSTEVIYQPRRKRAKLIGKYLMGDLLGEGSYGKVKEVLDSETLCRRAVKILKKKKLRRIPNGEANVKKEIQLLRRLRHKNVIQLVDVLYNEEWQKMYMVMEYCVCGMQEMLDSVPEKRFPVCQAHGYFCQLIDGLEYLHSQGIVHKDIKPGNLLLTTGGTLKISDLGVAEALHPFAADDTCRTSQGSPAFQPPEIANGLDTFSGFKVDIWSAGVTLYNITTGLYPFEGDNIYKLFENIGKGSYAIPGDCGPPLSDLLKGMLEYEPAKRFSIRQIRQHSWFRKKHPPAEAPVPIPPSPDTKDRWRSMTVVPYLEDLHGADEDEDLFDIEDDIIYTQDFTVPGQVPEEEASHNGQRRGLPKAVCMNGTEAAQLSTKSRAEGRAPNPARKACSASSKIRRLSACKQQ [K122W],1.4 ± 0.36
3,MEVVDPQQLGMFTEGELMSVGMDTFIHRIDSTEVIYQPRRKRAKLIGKYLMGDLLGEGSYGKVKEVLDSETLCRRAVKILKKKKLRRIPNGEANVKKEIQLLRRLRHKNVIQLVDVLYNEEKQKMYMVMEYCVCGMQEMLDSVPEKRFPVCQAHGYFCQLIDGLEYLHSQGIVHKDIKPGNLLLTTGGTLKISDLGVAEALHPFAADDTCRTSQGSPAFQPPEIANGLDTFSGFKVDIWSAGVTLYNITTGLYPFEGDNIYKLFENIGKGSYAIEGDCGPPLSDLLKGMLEYEPAKRFSIRQIRQHSWFRKKHPPAEAPVPIPPSPDTKDRWRSMTVVPYLEDLHGADEDEDLFDIEDDIIYTQDFTVPGQVPEEEASHNGQRRGLPKAVCMNGTEAAQLSTKSRAEGRAPNPARKACSASSKIRRLSACKQQ [P275E],0.52 ± 0.15
4,MEVVDPQQLGMFTEGELMSVGMDTFIHRIDSTEVIYQPRRKRAKLIGKYLMGDLLGEGSYGKVKEVLDSETLCRRAVKILKKKKLRRIPNGEANVKKEIQLLRRLRHKNVIQLVDVLYNEEKQKMYMVMEYCVCGMQEMLDSVPEKRFPVCQAHGYFCQLIDGLEYLHSQGIVHKDIKPGNLLLTTGGTLKISDLGVAEALHPFAADDTCRTSQGSPAFQPPEIANGLDTFSGFKVDIWSAGVTLYNITTGLYPFEGDNIYKLFENIGKGSYAIPGDCGPPLSDLLKGMLEYEPAKRFSIRQIRQHSWFRKKHPPASAPVPIPPSPDTKDRWRSMTVVPYLEDLHGADEDEDLFDIEDDIIYTQDFTVPGQVPEEEASHNGQRRGLPKAVCMNGTEAAQLSTKSRAEGRAPNPARKACSASSKIRRLSACKQQ [E317S],0.661 ± 0.31
5,MEVVDPQQLGMFTEGELMSVGMDTFIHRIDSTEVIYQPRRKRAKLIGKYLMGDLLGEGSYGKVKEVLDSETLCRRAVKILKKKKLRRIPNGEANVKKEIQLLRRLRHKNVIQLVDVLYNEEKQKMYMVMEYCVCGMQEMLDSVPEKRFPVCQAHGYFCLLIDGLEYLHSQGIVHKDIKPGNLLLTTGGTLKISDLGVAEALHPFAADDTCRTSQGSPAFQPPEIANGLDTFSGFKVDIWSAGVTLYNITTGLYPFEGDNIYKLFENIGKGSYAIPGDCGPPLSDLLKGMLEYEPAKRFSIRQIRQHSWFRKKHPPAEAPVPIPPSPDTKDRWRSMTVVPYLEDLHGADEDEDLFDIEDDIIYTQDFTVPGQVPEEEASHNGQRRGLPKAVCMNGTEAAQLSTKSRAEGRAPNPARKACSASSKIRRLSACKQQ [Q159L],0.623 ± 0.11
6,MEVVDPQQLGMFTEGELMSVGMDTFIHRIDSTEVIYQPRRKRAKLIGKYLMGDLLGEGSYGKVKEVLDSETLCRRAVKILKKKKLRRIPNGEANVKKEIQLLRRLRHKNVIQLVDVLYNEEKQKMYMVMEYCVCGMQEMLDSVPEKRFPVCQAHGYFCQLIDGLEYLHSQGIVHKDIKPGNLLLTTGGTLKISDLGVAEALHPFAADDTCRTSQGSPAFQPPEIANGLDTFSGFKVDIWSAGVTLYNITTFLYPFEGDNIYKLFENIGKGSYAIPGDCGPPLSDLLKGMLEYEPAKRFSIRQIRQHSWFRKKHPPAEAPVPIPPSPDTKDRWRSMTVVPYLEDLHGADEDEDLFDIEDDIIYTQDFTVPGQVPEEEASHNGQRRGLPKAVCMNGTEAAQLSTKSRAEGRAPNPARKACSASSKIRRLSACKQQ [G251F],0.127 ± 0.13
7,MEVVDPQQLGMFTEGELMSVGMDTFIHRIDSTEVIYQPRRKRAKLIGKYLMGDLLGEGSYGKVKEVLDSETLCRRAVKILKKKKLRRIPNGEANVKKEIQLLRRLRHKNVIQLVDVLYNEEKQKMYMVMEYCVCGMQEMLDSVPEKRFPVCQAHGYFCQLIDGLEYLHSQGIVHKDIKPGNLLLTTGGTLKISDLGVAEALHPFAADDTCRTSQGSPAFQPPEIANGLDTFSGFKVDIWSAGVTLYNITTGLYPFEGDNIYKLFENIGKGSYAIPGDCGPPLSDLLKGMLEYEPAKRFSIRQIRQHSWFRKKHPPAEAPVPIPPSPDTKDRWRSMTVVPYLEDLHGADEDEDLFDIEDDIIYTQDFTVPGQVPEEELSHNGQRRGLPKAVCMNGTEAAQLSTKSRAEGRAPNPARKACSASSKIRRLSACKQQ [A377L],1.04 ± 0.16
8,MEVVDPQQLGMFTEGELMSVGMDTFIHRIDSTEVIYQPRRKRAKLIGKYLMGDLLGEGSYGKVKEVLDSETLCRRAVKILKKKKLRRIPNGEANVKKEIQLLHRLRHKNVIQLVDVLYNEEKQKMYMVMEYCVCGMQEMLDSVPEKRFPVCQAHGYFCQLIDGLEYLHSQGIVHKDIKPGNLLLTTGGTLKISDLGVAEALHPFAADDTCRTSQGSPAFQPPEIANGLDTFSGFKVDIWSAGVTLYNITTGLYPFEGDNIYKLFENIGKGSYAIPGDCGPPLSDLLKGMLEYEPAKRFSIRQIRQHSWFRKKHPPAEAPVPIPPSPDTKDRWRSMTVVPYLEDLHGADEDEDLFDIEDDIIYTQDFTVPGQVPEEEASHNGQRRGLPKAVCMNGTEAAQLSTKSRAEGRAPNPARKACSASSKIRRLSACKQQ [R103H],1.6 ± 0.32
9,MEVVDPQQLGMFTEGELMSVGMDTFIHRIDSTEVIYQPRRKRAKLIGKYLMGDLLGEGSYGKVKEVLDSETLCRRAVKILKKKKLRRIPNGEANVKKEIQLLRRLRHKNVIQLVDVLYNEEKQKMYMVMEYCVCGMQEMLDSVPEKRFPVCQAHGYFCQLIDGLEYLHSQGIVHKDIKPGNLLLTTGGTLKISDLGVAEALHPFAADDTCRTSQGSPAFQPPEIANGLDTFSGFKVDIWSAGVTLYNITTGLYPFEGDNIYKLFENIGKGSYAIPGDCGPPLSDLLKGMLEYEPAKRFSIRQIRQHSWFRKKHPPAEAPVPIPPSPDTKDRWRSMTVVPYLEDLHGADEDEDLFDIEDDIIYTQDFTVPGQVPEEEASHNGQRRGLPKAVCMNGTEAAQLSTKSRAEGRAPNPARKACSASFKIRRLSACKQQ [S422F],1.4 ± 0.44
10,MEVVDPQQLGMFTEGELMSVGMDTFIHRIDSTEVIYQPRRKRAKLIGKYLMGDLLGKGSYGKVKEVLDSETLCRRAVKILKKKKLRRIPNGEANVKKEIQLLRRLRHKNVIQLVDVLYNEEKQKMYMVMEYCVCGMQEMLDSVPEKRFPVCQAHGYFCQLIDGLEYLHSQGIVHKDIKPGNLLLTTGGTLKISDLGVAEALHPFAADDTCRTSQGSPAFQPPEIANGLDTFSGFKVDIWSAGVTLYNITTGLYPFEGDNIYKLFENIGKGSYAIPGDCGPPLSDLLKGMLEYEPAKRFSIRQIRQHSWFRKKHPPAEAPVPIPPSPDTKDRWRSMTVVPYLEDLHGADEDEDLFDIEDDIIYTQDFTVPGQVPEEEASHNGQRRGLPKAVCMNGTEAAQLSTKSRAEGRAPNPARKACSASSKIRRLSACKQQ [E57K],1.12 ± 0.74
11,MEVVDPQQLGMFTEGELMSVGMDTFIHRIDSTEVIYQPRRKRAKLIGKYLMGDLLGEGSYGKVKEVLDSETLCRRAVKILKKKKLRRIPNGEANVKKEIQLLRRLRHKNVIQLVDVLYNEWKQKMYMVMEYCVCGMQEMLDSVPEKRFPVCQAHGYFCQLIDGLEYLHSQGIVHKDIKPGNLLLTTGGTLKISDLGVAEALHPFAADDTCRTSQGSPAFQPPEIANGLDTFSGFKVDIWSAGVTLYNITTGLYPFEGDNIYKLFENIGKGSYAIPGDCGPPLSDLLKGMLEYEPAKRFSIRQIRQHSWFRKKHPPAEAPVPIPPSPDTKDRWRSMTVVPYLEDLHGADEDEDLFDIEDDIIYTQDFTVPGQVPEEEASHNGQRRGLPKAVCMNGTEAAQLSTKSRAEGRAPNPARKACSASSKIRRLSACKQQ [E121W],0.251 ± 0.073
12,MEVVDPQQLGMFTEGELMSVGMDTFIHRIDSTEVIYQPRRKRAKLIGKYLMGDLLGEGSYGKVKEVLDSETLCRRAVKILKKKKLRRIPNGEANVKKEIQLLRRLRHKNVIQLVDVLYNEEKQKMYMVMEYCVCGMQEMLDSVPEKRFPVCQAHGYFCQLIDGLEYLHSQGIVHKDIKPGNLLLTTGGTLKISDLGVAEALHPFAADDTCRVSQGSPAFQPPEIANGLDTFSGFKVDIWSAGVTLYNITTGLYPFEGDNIYKLFENIGKGSYAIPGDCGPPLSDLLKGMLEYEPAKRFSIRQIRQHSWFRKKHPPAEAPVPIPPSPDTKDRWRSMTVVPYLEDLHGADEDEDLFDIEDDIIYTQDFTVPGQVPEEEASHNGQRRGLPKAVCMNGTEAAQLSTKSRAEGRAPNPARKACSASSKIRRLSACKQQ [T212V],0.545 ± 0.091
13,MEVVDPQQLGMFTEGELMSVGMDTFIHRIDSTEVIYQPRRKRAKLIGKYLMGDLLGEGSYGKVKEVLDSETLCRRAVKILKKKKLRRIPNGEANVKKEIQLLRRLRHKNVIQLVDVLYNEEKQKMYMVMEYCVCGMQEMLDSVPEKRFPVCQAHGYFCQLIDGLEYLHSQGIVHKDIKPGNLLLTTGGTLKISDLGVAEALHPFAADDTCRTSQGSPAFQPPEIANGLDTFSGFKVDIWSAGVTLYNITTGLYPFEGDNIYKLFENIGKGSYAIPGDCGPPLSDLLKGMLEYEPAKRFSIRQIRQHSWFRKKHPPAEAPVPIPPSPDTKDRWRSMTNVPYLEDLHGADEDEDLFDIEDDIIYTQDFTVPGQVPEEEASHNGQRRGLPKAVCMNGTEAAQLSTKSRAEGRAPNPARKACSASSKIRRLSACKQQ [V337N],1.54 ± 0.17
14,MEVVDPQQLGMFTEGELMSVGMDTFIHRIDSTEVIYQPRRKRAKLIGKYLMGDLLGEGSYGKVKEVLDSETLCRRAVKILKKKKLRRIPNGEANVKKEIQLLRRLRHKNVIQLVDVLYNEEKQKMYMVMEYCVCGMQEMLDSVPEKRFPVCQAHGYFCQLIDGLEYLHSQGIVHKDIKPGNLLLTTGGTLKISDLGVAEALHPFAADDTCRTSQGSPAFQPPEIANGLDTFSGFKVDIWSAGVTLYNITTGLYPFEGDNIYKLFENIGKGSYAIPGDCGPPLSDLLKGMLEYEPAKRFSIRQIRQHSWFRKKHPPAEAPVPIPPSPDTKDRWRSMTVVPYLEDLHGADEDEDLVDIEDDIIYTQDFTVPGQVPEEEASHNGQRRGLPKAVCMNGTEAAQLSTKSRAEGRAPNPARKACSASSKIRRLSACKQQ [F354V],1.3 ± 0.21
